Patent publication US20060153778A1 (MannKind Corporation, priority 2005, published 2006)
Like-named read-outs stand apart in the source and are kept apart here.

Legend:
[1] = in vivo
[2] = in vivo; remark: listed apart in the source
[3] = Glucose clamp study after inhalation of Technosphere/Insulin: glucose infusion rate (biological action), tolerability; type: in vivo, human; settings: for T-50% (time from baseline to half-maximal after passing Tmax), calculated on glucose infusion rate / Tmax, calculated on glucose infusion rate / T50% (time from baseline to half-maximal values), calculated on glucose infusion rate: glucose clamp; for T50% (time from baseline to half-maximal values), calculated on glucose infusion rate: healthy male volunteers
From the text: (§1) The volunteers were in good health, as judged by physical examination, age: 18 to 40 years, body mass index: 18 to 26 kg/m^2, capability to reach peak inspiratory flow of ≧4 L/sec measured by a computer assisted spirometry and a FEV1 (FEV1=forced expiratory volume in one second) equal to or greater than 80% of predicted normal.
(§2) On the morning of the study days, the subjects came to the hospital (fasting, except for water, from midnight onward) at 7:30 a.m. The subjects were restricted from excessive physical activities and an intake of alcohol for 24 hours before each treatment day. They were randomly assigned to one of the three treatment arms. […] Blood glucose was kept constant at a level of 90 mg/dL throughout the glucose clamp by a glucose controlled infusion system (BIOSTATOR™, Life Science Instruments, Miles Laboratories, Elkhart, Ind.). The glucose clamp algorithm was based on the actual measured blood glucose concentration and the grade of variability in the minutes before to calculate the glucose infusion rates for keeping the blood glucose concentration constant. […] The duration of the clamp experiment was 6 hours from time point 0. Glucose infusion rates, blood glucose, serum insulin and C-peptide were measured.

[4] = Glucose clamp study: serum insulin concentrations, bioavailability; type: in vivo, human
From the text: as §1
as §2, with “0.” for “0. Glucose infusion rates, blood glucose, serum insulin and C-peptide were measured.”

[5] = Time to peak blood concentration and uptake rate after pulmonary delivery (general statements)

In the case of O=C(O)/C=C/C(=O)NCCCC[C@@H]1NC(=O)[C@H](CCCCNC(=O)/C=C/C(=O)O)NC1=O [FDKP, fumaryl diketopiperazine], the “Transit from the lungs” value [1] is reported as “kinetics similar to that of insulin”.
With CCNC(=O)[C@@H]1CCCN1C(=O)[C@H](CCCNC(=N)N)NC(=O)[C@H](CC(C)C)NC(=O)[C@@H](CC(C)C)NC(=O)[C@H](Cc1ccc(O)cc1)NC(=O)[C@H](CO)NC(=O)[C@H](Cc1c[nH]c2ccccc12)NC(=O)[C@H](Cc1c[nH]cn1)NC(=O)[C@@H]1CCC(=O)N1 [leuprolide] the “Time to peak blood concentrations” value [2] was 3 to 10 min.
In the case of “insulin: insulin given as 5 IU intravenous or 10 IU subcutaneous injection, or by the pulmonary route without fumaryl diketopiperazine; comparator”, the “T to baseline, calculated on glucose infusion rate” value ([3]; 5 IU insulin intravenous, clamp duration 6 hours) is reported as 240 min, the “T-50% (time from baseline to half-maximal after passing Tmax), calculated on glucose infusion rate” value ([3]; 5 IU insulin intravenous) is reported as 1.37 h and the “Tmax, calculated on glucose infusion rate” value ([3]; 5 IU insulin intravenous) is reported as 0.233 h. For the same compound, the “T50% (time from baseline to half-maximal values), calculated on glucose infusion rate” value ([3]; 5 IU insulin intravenous) was 9 min, the “T-50% (time from baseline to half-maximal after passing Tmax), calculated on glucose infusion rate” value ([3]; 10 IU insulin subcutaneous) was 4 h and the “Tmax, calculated on glucose infusion rate” value ([3]; 10 IU insulin subcutaneous) was 2.72 h. The “T50% (time from baseline to half-maximal values), calculated on glucose infusion rate” value ([3]; 10 IU insulin subcutaneous) was 60 min, the “T50% (time from baseline to half-maximal values), calculated on insulin levels” value ([4]; 5 IU insulin intravenous) was 2 min and the “T to baseline, calculated on insulin levels” value ([4]; 5 IU insulin intravenous) was 60 min. For the same compound, the “T-50% (time from baseline to half-maximal after passing Tmax), calculated on insulin levels” value ([4]; 5 IU insulin intravenous) was 0.1 h, the “Tmax, calculated on insulin levels” value ([4]; 5 IU insulin intravenous) was 0.083 h and the “T to baseline, calculated on insulin levels” value ([4]; 10 IU insulin subcutaneous) was 360 min. For the same compound, the “T-50% (time from baseline to half-maximal after passing Tmax), calculated on insulin levels” value ([4]; 10 IU insulin subcutaneous) was 4.17 h, the “Tmax, calculated on insulin levels” value ([4]; 10 IU insulin subcutaneous) was 2.02 h and the “Time to peak blood concentrations” value ([5]; pulmonary route without fumaryl diketopiperazine) was 25 to 60 min. The “Time to peak blood level” value ([5]; subcutaneous injection) was 30 to 90 min.
For “parathyroid hormone 1-34: peptide complexed with FDKP for pulmonary delivery”, the “Time to peak blood concentrations” value [2] was 3 to 10 min.
In the case of salmon calcitonin, the “Time to peak blood concentrations” value [2] is reported as 3 to 10 min.
